Measured values: the domain aggregation screens of Martell et al. (2025)

Test: soluble fraction after stress (log2 fold change); higher = more stays soluble; pooled small domains, quantitative proteomics
Details: stress: 75 degC
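Further: 20 min heating vs room temperature control held 20 min.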

Sequence	soluble fraction (log2)
HMQRSVNYSELHEIKERVFDALYSSPMSMPDLLAWLKGDEEHTISVIRLMQDNGDIEMGEDGRLAVV	-0.383
HMQSISLEEAKSAALDDAQLGIDEVEFLKTERNTDGDTSYYDIQFLVNGTIYKYQINTETGAILHVDYEA	0.0632
HMQSITAGDKVRVKNYTVSGGKKRGKVYGGAGTFVVYYEKYDVISVTGDRVVIGIGKAVTAAVHIDDLEK	-2.07
HMQSKSEINELPKSIHMAFSPKNFELFIDNLKINEIDFSNWKGELNTIQERVDGQRQIWIQDPQGYWIEIN	-0.0964
HMQSLIVPVPKPEDDPVYKDGIKQDPVEVVSIWLGRDYLNMILNLKVSTGKGHTFGIVEDVS	-0.157
HMQSNDTAEIEAVVKEIMAANERVVNDYRSGNTKVVSFFVGQVMKATKGKANPKVVNEVLAKLLK	-0.823
HMQSVPELDQQFKIAIENNDFIKLAQLKEQGYHPSKEVMQSLSNTTPNNTIIAVQKIFGLKA	0.546
HMQSVSANSVQKQLADIIDGEDKTHPLSDRELTEKLVAQGVQISRRTVAKYREAMGIPGASGRKQ	-0.0543
HMQTAAANPSPESILQAREAAGLSQSEAGALIYSGLRSWQHWEWGTRRMHPGLFELFLKKTGQI	-1.83
HMQTKMVYSDLVNSIKSEQVSSMLVSGNTVTVTLTNGDKAKVKIPSLDTLQADVGKEMNDQMDKGTLKQE	0.18
HMQTKNYVYFNNTENWSTVNVYVWSSKDSTYMSWPGKAMESIGNNTYRFELPNGAEYAIFNNGSAQTVD	-0.335
HMQTKSDMVYHRVREDIVNGVFAPGERLLISAVAKQYGVSEIPVREAFRVLSQEGFLKTRPNSGFVVS	-0.44
HMQTMTAGERREAILRELEQAQGPVSASALAKRFHVSRQAVVGDVAMLRALNSPIAATPRGYVLTR	-0.322
HMQTMTDDQVMQYVISQQEKGATQQDIVSKLLQKGVTVDQMRRIRKKYEAQQSQPGALDLTGSS	0.654
HMQTNEAIINQAVQAAEAQNITTRSQAVDALKANGMTEAQARQLAVQRGISYDQLINELFPME	0.0149
HMQTPVTVGDTMPNLIGTPKRLLLELLNRTDITVKLTGDGYVTAQSPAAGTPIAKGMIIELSL	-2.17
HMQTQVEVLVKYVLEDGTVYKEDKVSADIGAILDSGDLPMLSNDMKFIDDFLFYEVKESDNVIERKVAKLV	-0.782
HMQTQYIVDTKTTLLVRTGPGKSNSQFGRLKNGETINVYAIKNGWAEISYNGKTGYVSEQYIKLA	-3.59
HMQTTDTGAIETIVDELMAANPDKVEAYRGGKTGLQGFFMGQVMKQLGGQGNPKVISAIVTEKLE	0.603
HMQTTPAGHELLIRYFANGNIRERGMMKDGKRNGIWIFYDESGMEIRKTKYKMGKIISDYDLN	-2.6
HMQTTQQLIRNLRLKQAATLLADKRHSITEVATLTGFTHPTYFATAFREMFGVSPSEYMEQHI	-1.49
HMQTYNQLKRGMTEWIQAGQKQKAYELFAGVAGQLSLSSAAGKKQYNELVTILNRAGFGIPLE	-1.12
HMQVEMVLSQEAHEWLLQRGFIPEYGAREMDRVIAAHLKPLLMREILFGTLKAGGKVRVQVENGALKLQP	-3.08
HMQVLSESDVEDIKAISGGDKAYDNLMEWAGSKLSKQDAKDYDDVLATGNKTAITFAVKALMAQYENAN	-0.198
HMQVPFGFQRNPSTGTLEEKAEEQLIINQVLSLKNSGIGVSEISKRLGELSVSRIYRIINTAKKNAS	-0.812
HMQVSDANQLTDVVKSIIKQYPVEVEKYKSGKKALFGFFMGKVMENLKGKSNPKILKNVLTEILD	0.22

Sequence	soluble fraction (log2)
HMQVSDTNTLEQFAKEVIEANPKAVEDYHQNPLAIGFLVGQLMKVSKGSANPQTGKEILEKLL	-0.112
HMQVSDVTTIRALVEEVLSSSPQQLAQYRAGKLSLKGYFVGQVMKKGKGQLNAAAVNNLLDEIL	-2.41
HMQVSEQVQRLLDALENDTLTTKELMDRLGLKHRPTFRKNYLLPSMKLGLVEMTIPDKPNSSRQKYRRRQ	-0.566
HMQVTEVDYGTFMKMVEEKNVGEVEVGNSMIVFTDKDGKAIYKTGAMNDPNLTERLYNAGASFTKE	0.144
HMQVTGLTAENAHRVTMIREKGTDHPPVPFHFRKEHHGTGNYVHLYGNPEDRNELHSRDFKDWEAVAFK	0.211
HMQVVDWSQVDKEDYLLATKRRAVSTGELKFLLLNNLTYDLTQTRFFKGMDASYYYEGYNLYQTGE	0.0696
HMQWGKVRRLPSGRYQASYVHKGTRYTAPETYTVQGRAHGWIESERRLIVTDTWTPPDTRPS	-1.24
HMQWLDSIRSRLRVGQTISYFEPRENASSSGLIIELRRKRVLVLEIATQKRWLIEYAAINVDG	-0.279
HMQWQPSEEAMQRLEQHGIPRAFSFSQLDAFVLQGQEQGSNRNDWNTRFFRFIKNQWVYAQN	-2.59
HMQYDSYTVEEPAKLLDWLLAHLRQSRTKIKATLQGHGIKVNGKTVTQFDYPLEPGMKIRVSLTK	-1.24
HMQYKTRVINLSILEVGMVLGRDLINKDGKIIVKKDVAISDFLKDHLIGLSKIKEIEPQIYIKV	-1.15
HMQYSIQVNKLLKAMREDVWYTANEILDLLKLKSKETLRKNYLDPAINNKLIILELPDKPTSRNQRYKI	-2.03
HMQYTQKTMYINDSYVNLRKSASTSSDIIMVVELNTKLTVIGEDGDWYKVKTSSGNAYVLKTLLSNEKKET	-3.22
HMQYTTDEVRERVLSVLNQLLLRWIVREGKDMFNIQANAVEISEGIKGELNTELEKIGLAATGFQIDSV	-0.393
HMRADRLISMLMLLQARGKITAEELAVELGVSQRTIYRDIEALSFAGVPVYAERGPGGGIGLLEPY	-1.73
HMRAEPNSNYSLAIIYKNRYDIAVKKKDAVKEVEYGKMVYEYLNKYVVLSGNKSAKYKKILNYFSSY	-3.02
HMRAFTPSEAQVAHARRVMEAFWQHQREGHGAFALDGKMVDAPIVKAAARVLARAGLQDPNHPIHLA	-0.332
HMRALPFSFANRHGVLIREISDGVAHAVYRIGSSPLGLAEARRFVGMPLMLTPVAREAFDSLLQQTYEQG	-2.39
HMRAPEIEAARSDLDVGQTVQIVRHLHGNQYEVFYRGAQWQAEAVGSSGANDAQTAVITGKNGNILLIQI	0.0986
HMRAVPTKLAPFVEVLKAMLEADGHRPKAQRRTAKALHLELISRGYAGGYTRLTDYIRDWRQQQG	-2.36
HMRDANYFINPIHEWQKRYEALRASFVDRLPAQAVAQRFGYTITYIHLLRHQFKSGKIDFSEPVPEG	-4.19
HMRDFTQPQTASIGPRMREALARGTMTVEELREQFRTQEFPHESVRTAFLEELERVAAELGLA	0.349
HMRDISTDTSAWTFQDIKRYYDPQDLLTEKQVGQALSLIKGRNLNPLLNEVYIVAYKKKNGGAEFSLIV	-0.224
HMRDPLNTGFRQTLKDIVNSLPKNELYSPGVREEYIYPKIGVTSLGMEASMVLNGLISSRRKNIELKEKN	0.369
HMRDPVDKDNYLGDWDKNKTYPAGYVMTFGDKNYLALQEVPAGTKPGATDPDPFWVLDTGKTLKD	-0.14
HMRDQARQFFIDTWAKFQRHDALTPLEEKTAAIIALHPEYHRVLQNPESFITTDWRPESGDINPFMHL	-2.02

Sequence	soluble fraction (log2)
HMRDSYEVEGRIASVSPAAGTFVVAGVTVDYTGARFVGGTVAQLAPGVKVEVEGRRLANGTLQAREIEFD	-0.142
HMRDSYTFEDIEKLKDSYLQDSEKALEKLISIYEDTNQSLAIRTAALDIITDSQDPTFKLALEKIIS	-0.177
HMRDTAKTLLAMEVVGENNKKNLQAFGIQKGDQNYQTAVVVRLMQKALMEGDTSAIRLIGELTGD	-0.0652
HMRDTLSKQLLTEEMVLQFIREMREHDPGIGGEKLHAMYLGRFGRDYEYMVGRDKMEMIIAENNLNVR	-0.996
HMRDYDFGNLLYKLRIESGYTQKDIADMLGVTDKAVSKWENGIAKPTTNNIKLLSTIYNVSVEELLNG	-1.19
HMRDYKTALQEWVQRTPGQPIAYRLVDELGPDHARVFVMEVTVGGQSAGQGRGRTKKEAEQLAARAALEKL	-0.448
HMREEIESVYKTLAVTEIPYIARGNSARLGSGIQTVYDFYRMEGMQVSKILGRNGSVLWLELHG	0.0223
HMREEMYGLIGFITTSEVTDTFGQMEIKLENEPEMRINVRTNPGESLARGDAAKIISFNNSNGTFLVELTK	-0.921
HMREFQVMKQELQEMVHQRLDMSTELSDEAIGDVIDEVIMEKSRNMYISSVTKLTLRQELFNAIR	-1.68
HMREGRERRLSQLLSYLRTHHILTRSEYVKLTGLSPTAASSELKTFVTAGHIVRKGIASHSTYRLPH	-1.91
HMREKLKEYVHLLFAGTVGKEDMEQEILQNTLDRFDDWVARGFSEEDAYRKAVSGIGDIDALLG	-0.0221
HMREPDPELTASIKSMAESNDQSERLVALAQLSEQRAVDPEVADQILLIALLDEDPIIRGQAVYA	0.274
HMRERLPFGFAQSKKVVLLSTESDTPKVLSVNWPSLDLYAELKRVIGRAFLLEIVSEEEFQAQVSDAYQRD	-2.47
HMREVGVPNLRGLTAEEAQIVLSNAGLNLRTEPIRRVHETITVGRIAEQDPMPDLTIRSQRSVTTWLSSGP	0.328
HMREVTVGSAVRLKKGAKTYSGGSLASFVYERNHQVTQLSGDRAVISFKGTVVAAVHKDDLIL	-1.06
HMREVVLNRIGSVAVQRATTRTWEEWVVTLDAEGMRGKEHRDVVGHLLRAHELTSWWAQMVSVGYEQSRGQ	-0.18
HMREYRITAEEGHPRIDVFLAGRPEIGLSRSRIQALIDEGQVTLNGAMPKARQAVNPGDVIVVRVPDPE	0.0963
HMRFEWFDTLTDREKEIFGLIATGFDNQQIADRLQLAEQTVRNNISTIYSKLEVKDRFEIIRLANTI	-1.35
HMRFKPLAEILAAVQTRYAGRVLDVELDRDQAGRNVYEVKLLAADGSRREIHIDAVTGKEVSL	-0.56
HMRGAIKMAEEQMAGHKKIGSISGTAPTQGELEKKFAMAAAQMGARYYVITGLSNNNYAFGNADIY	-0.669
HMRGDEDTGVWPTPMKRAYIDSLLKGYPTGVTMIVKPPGASHTTKWMILDGANRARALRDFMNDEFMI	-0.0871
HMRGFTDFEHIEKEYLATIEKLNWPDGVTLPDKLEGEDTGTSFQVGYGDTRASNLWEYSWMK	-0.163
HMRGIPEEVADVAIQWVARLDSNEISDADRAAFFAWLDASPINRWAYNDISESWAKLSILNEMGH	-1.87
HMRGLFTVYMVGEKASRVGELDEEMVYESRIGDVFALGATSWRIEEITHDRVLVSPAYGQPGRLPFWH	-2.13
HMRGLGDLEPVDSLGKIRIDDGHMVLAFGRHKGRHLSEVQAEDPRYIHWLLSPKGIEDVEAREKVKVYLEG	0.0762
